Experimental data as given in patent US20260152573A1 (ARGENX, published 2026).
Positions count from the first letter of the chain named. Names and notes keep the numbering of the source.

B1: TA-Fc-ABDEG-2H11 (Fc fusion)
chain: GGGGSGGGGSGGGGSGGGGSELQVVESGGGLVQAGGSLRLSCAASGRTFRSNTMGWFRQAPGKEREFVAAITWSGGTTYYADSVKGRFAISGDNAKNTVYLQMNSLKPEDTAVYYCAAEGPKWEPWNGIYHPADFGSWGQGTQVTVSS
notes: also called 2H11 parental (two-armed Fc-ABDEG-20GS-Cterm fusion); not shown: Fc-ABDEG domain
B2: 2H11-v16 fused at the C-terminus of Fc-ABDEG (two-armed) (Fc fusion)
chain: B1 chain with F135A
notes: not shown: Fc-ABDEG domain
B3: 2H11-v3 fused at the C-terminus of Fc-ABDEG (two-armed) (Fc fusion)
chain: B1 chain with P121A
notes: not shown: Fc-ABDEG domain
B4: 2H11-v15 fused at the C-terminus of Fc-ABDEG (two-armed) (Fc fusion)
chain: B1 chain with D134A
notes: not shown: Fc-ABDEG domain
B5: 2H11-v12 fused at the C-terminus of Fc-ABDEG (two-armed) (Fc fusion)
chain: B1 chain with Y130A
notes: not shown: Fc-ABDEG domain
B6: OA-Fc-ABDEG-Alb23-G53A (Fc fusion)
chain: DKTHTCPPCPAPELLGGPSVFLFPPKPKDTLYITREPEVTCVVVDVSHEDPEVKFNWYVDGVEVHNAKTKPREEQYNSTYRVVSVLTVLHQDWLNGKEYKCKVSNKALPAPIEKTISKAKGQPREPQVYTLPPSRDELTKNQVSLWCLVKGFYPSDIAVEWESNGQPENNYKTTPPVLDSDGSFFLYSKLTVDKSRWQQGNVFSCSVMHEALKFHYTQKSLSLSPGGGGGSGGGGSGGGGSGGGGSEVQLLESGGGLVQPGGSLRLSCAASGFTFRSFGMSWVRQAPGKGPEWVSSISASGSDTLYADSVKGRFTISRDNSKNTLYLQMNSLRPEDTAVYYCTIGGSLSRSSQGTLVTVSS
Fc: DKTHTCPPCPAPELLGGPSVFLFPPKPKDTLYITREPEVTCVVVDVSHEDPEVKFNWYVDGVEVHNAKTKPREEQYNSTYRVVSVLTVLHQDWLNGKEYKCKVSNKALPAPIEKTISKAKGQPREPQVYTLPPSRDELTKNQVSLSCAVKGFYPSDIAVEWESNGQPENNYKTTPPVLDSDGSFFLVSKLTVDKSRWQQGNVFSCSVMHEALKFHYTQKSLSLSPG
B7: OA-Fc-ABDEG-Alb23-S101T (Fc fusion)
chain: B6 chain with A299G, S347T
Fc: B6 Fc
B8: OA-Fc-ABDEG-Alb23-S52A/G53A (Fc fusion)
chain: B6 chain with S298A
Fc: B6 Fc
B9: OA-Fc-ABDEG-Alb23-S52A/S101A (Fc fusion)
chain: B6 chain with S298A, A299G, S347A
Fc: B6 Fc
B10: OA-Fc-ABDEG-Alb23-S101A (Fc fusion)
chain: B6 chain with A299G, S347A
Fc: B6 Fc
B11: OA-Fc-ABDEG-Alb23-S52A (Fc fusion)
chain: B6 chain with S298A, A299G
Fc: B6 Fc
B12: Alb23 F32A (VHH)
VHH: EVQLLESGGGLVQPGGSLRLSCAASGFTFRSAGMSWVRQAPGKGPEWVSSISGSGSDTLYADSVKGRFTISRDNSKNTLYLQMNSLRPEDTAVYYCTIGGSLSRSSQGTLVTVSS
notes: VHH alone
B13: Alb23 G99A (VHH)
VHH: B12 VHH with A32F, G99A
notes: VHH alone
B14: Alb23 G33A/S101A (VHH)
VHH: B12 VHH with A32F, G33A, S101A
notes: VHH alone
B15: Alb23 L59A (VHH)
VHH: B12 VHH with A32F, L59A
notes: VHH alone
B16: Alb23 G100A (VHH)
VHH: B12 VHH with A32F, G100A
notes: VHH alone
B17: Alb23 M34A (VHH)
VHH: B12 VHH with A32F, M34A
notes: VHH alone

target: T1, human serum albumin (human, UniProt P02768 25-609); test: SPR Biacore 3000, HSA on chip, pH 5.5
T1 construct: Immobilised on SPR chips; also added in solution in the FcRn occupancy assays; also called HSA; humanSA

Row | Binder | R0 pH 5.5 [RU] | koff [s⁻¹]
1 | B1 | 351 | 0.00016
2 | B2 | 8.91 | 0.00301
3 | B3 | 164 | 0.000135
4 | B4 | 235 | 0.00174
5 | B5 | 93.9 | 9.72e-05

target: T1, human serum albumin; test: SPR Biacore, HSA coated, kinetic fit, pH 5.5

Row | Binder | Kd [µM]
6 | B6 | 0.0206
7 | B7 | 0.0549
8 | B8 | 0.0477
9 | B9 | 0.0956
10 | B10 | 0.0543
11 | B11 | 0.0342

target: T1, human serum albumin; test: SPR Biacore, HSA coated, kinetic fit, pH 7.4

Row | Binder | Kd [µM]
12 | B6 | 0.0788
13 | B7 | 0.206
14 | B8 | 0.204
15 | B9 | 0.501
16 | B10 | 0.255
17 | B11 | 0.167

target: T1, human serum albumin; test: SPR Biacore, HSA coated, steady state, pH 7.4

Row | Binder | Kd [µM]
18 | B6 | 0.158
19 | B7 | 0.315
20 | B8 | 0.298
21 | B9 | 0.579
22 | B10 | 0.353
23 | B11 | 0.0273

target: T1, human serum albumin; test: SPR Biacore 8K+ SCK, albumin on chip, pH 7.4

Row | Binder | fold decrease in affinity compared to the parental Alb23 VHH fragment [fold]
24 | B12 | ≥ 10
25 | B13 | ≥ 10
26 | B14 | ≥ 10
27 | B15 | ≥ 10
28 | B16 | ≥ 10
29 | B17 | ≥ 10

target: T1, human serum albumin; test: SPR Biacore, HSA coated, steady state, pH 5.5

Row | Binder | Kd [µM]
30 | B6 | 0.0367
31 | B7 | 0.0708
32 | B8 | 0.0659
33 | B9 | 0.124
34 | B10 | 0.0675
35 | B11 | 0.0495

target: T2, cynomolgus monkey serum albumin (cynomolgus monkey, UniProt A2V9Z4 25-608); test: SPR Biacore 8K+ SCK, albumin on chip, pH 7.4
T2 construct: Immobilised on SPR chips; also called cynoSA; cynomolgus albumin

Row | Binder | Kd [µM] | koff [s⁻¹] | kon [M⁻¹ s⁻¹]
36 | B13 | 0.152 | 0.0809 | 533000
37 | B14 | 0.146 | 0.129 | 881000
38 | B15 | 0.0556 | 0.0444 | 797000
39 | B16 | 0.0379 | 0.0266 | 701000
40 | B17 | 0.182 | 0.356 | 1.95e+06

target: T2, cynomolgus monkey serum albumin; test: SPR Biacore 8K+ SCK, albumin on chip, ratio of KD

Row | Binder | KD pH 5.5/pH 7.4
41 | B13 | 0.31
42 | B14 | 0.42
43 | B15 | 0.46
44 | B16 | 0.57
45 | B17 | 0.42

target: T1, human serum albumin; test: SPR Biacore 8K+ SCK, albumin on chip, ratio of KD

Row | Binder | KD pH 5.5/pH 7.4
46 | B13 | 0.43
47 | B14 | 0.47
48 | B15 | 0.56
49 | B16 | 0.63
50 | B17 | 0.42

target: T2, cynomolgus monkey serum albumin; test: SPR Biacore 8K+ SCK, albumin on chip, pH 5.5

Row | Binder | Kd [µM] | koff [s⁻¹] | kon [M⁻¹ s⁻¹]
51 | B13 | 0.0472 | 0.0495 | 1.05e+06
52 | B14 | 0.0616 | 0.0711 | 1.15e+06
53 | B15 | 0.0256 | 0.0241 | 940000
54 | B16 | 0.0215 | 0.0195 | 905000
55 | B17 | 0.076 | 0.0831 | 1.09e+06

target: T1, human serum albumin; test: SPR Biacore 8K+ SCK, albumin on chip, pH 7.4; remark: another data set of the same source

Row | Binder | Kd [µM] | koff [s⁻¹] | kon [M⁻¹ s⁻¹]
56 | B13 | 0.1 | 0.0954 | 955000
57 | B14 | 0.116 | 0.133 | 1.15e+06
58 | B15 | 0.051 | 0.0451 | 885000
59 | B16 | 0.0306 | 0.0232 | 758000
60 | B17 | 0.175 | 0.226 | 1.29e+06

target: T1, human serum albumin; test: SPR Biacore 3000, HSA on chip, ratio of R0 at pH 5.5 and pH 7.4

Row | Binder | R0 5.5/7.4
61 | B1 | 3
62 | B2 | 16
63 | B3 | 19.9
64 | B4 | 370
65 | B5 | 14.9

target: T1, human serum albumin; test: SPR Biacore 8K+ SCK, albumin on chip, pH 5.5

Row | Binder | Kd [µM] | koff [s⁻¹] | kon [M⁻¹ s⁻¹]
66 | B13 | 0.0425 | 0.0473 | 1.11e+06
67 | B14 | 0.055 | 0.0672 | 1.22e+06
68 | B15 | 0.0286 | 0.0268 | 935000
69 | B16 | 0.0193 | 0.0184 | 950000
70 | B17 | 0.0738 | 0.0837 | 1.13e+06

target: T2, cynomolgus monkey serum albumin; test: SPR Biacore 8K+ SCK, albumin on chip, pH 7.4; remark: another data set of the same source

Row | Binder | Kd [µM]
71 | B13 | 0.152
72 | B14 | 0.146
73 | B15 | 0.0556
74 | B16 | 0.0379
75 | B17 | 0.182

target: T3, mouse serum albumin (mouse, UniProt P07724 25-608); test: SPR Biacore 8K+ SCK, albumin on chip, pH 7.4
T3 construct: Immobilised on SPR chips; also called mouseSA; MSA

Row | Binder | Kd [µM]
76 | B13 | 0.0731
77 | B14 | 0.118
78 | B15 | 0.354
79 | B16 | 0.0878
80 | B17 | 0.149

target: T1, human serum albumin; test: SPR Biacore 8K+ SCK, albumin on chip, pH 7.4; remark: another data set of the same source

Row | Binder | Kd [µM]
81 | B13 | 0.1
82 | B14 | 0.116
83 | B15 | 0.051
84 | B16 | 0.0306
85 | B17 | 0.175

target: T1, human serum albumin; test: SPR Biacore 3000, HSA on chip, pH 7.4

Row | Binder | R0 pH 7.4 [RU] | koff [s⁻¹]
86 | B1 | 115 | 0.00072
87 | B2 | 0.571 | 0.00193
88 | B3 | 8.24 | 0.0029
89 | B4 | 0.635 | 0.0025
90 | B5 | 6.32 | 0.0012
